Patent US20260176619A1 (published 2026)

T1: His-tagged recombinant human CD45 (human, UniProt P08575 26-577, limits assumed)
T1 construct: His-tagged
T1 sequence (looked up): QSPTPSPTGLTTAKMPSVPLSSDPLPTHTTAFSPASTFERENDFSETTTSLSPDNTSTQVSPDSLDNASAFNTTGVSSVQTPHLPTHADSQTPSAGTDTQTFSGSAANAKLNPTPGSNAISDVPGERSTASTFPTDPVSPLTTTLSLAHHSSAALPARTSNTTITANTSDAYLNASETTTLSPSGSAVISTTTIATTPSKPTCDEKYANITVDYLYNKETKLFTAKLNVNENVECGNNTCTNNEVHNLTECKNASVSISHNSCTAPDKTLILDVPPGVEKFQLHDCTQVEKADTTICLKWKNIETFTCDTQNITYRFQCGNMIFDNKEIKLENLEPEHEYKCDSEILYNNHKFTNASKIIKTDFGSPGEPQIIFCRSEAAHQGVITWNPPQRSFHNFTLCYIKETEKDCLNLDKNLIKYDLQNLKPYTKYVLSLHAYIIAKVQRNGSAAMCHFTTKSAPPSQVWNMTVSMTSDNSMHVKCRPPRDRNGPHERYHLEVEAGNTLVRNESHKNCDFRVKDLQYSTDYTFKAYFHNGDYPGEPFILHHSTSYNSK


Molecular target: T1, His-tagged recombinant human CD45
Experiment: assay not given; the affinity ELISA is described in Example 22
Procedure: 20 nM His-tagged recombinant human receptors: CD117, CD45, CD46, CD133, and CD135, were immobilized onto nickel coated plates overnight at 4° C. in TBS buffer. Non-bound receptors were removed with three-washes of 1×TBS-T buffer. Blocking buffer was added to each well and incubated plate for 0.5 hr at room temperature with continuous shaking of 550 rpm. The plate was washed with 1X TBS-T. Serial dilutions of candidate ligands with concentrations ranged from 2 pM to 1 μM were added to each well and incubated for 1 hr at room temperature with continuous shaking of 550 rpm. After three washes of 1X TBS-T, horseradish peroxidase (HRP) enzyme liked FLAG antibody solution (1:200) was added to each well for 1 hr at room temperature with continuous shaking of 550 rpm. Chemiluminescent substrate was added and HRP enzymic activity was measured using an […]. The data was analyzed by non-linear regression to estimate binding affinity.

| Binder | Kd [nM] |
| --- | --- |
| L111-CD45 scFv (scFv, Full scFv-FLAG tagged with an extra C-terminal cys residue; also called L11I-CD45; LIII-CD45 scFv) scFv: DIQMTQSPSFLSASVGDRVTINCKASQNINKYLDWYQQKHGEAPKLLIHYTNNLHTGIPSRFSGSGSGTDYTLTISSLQPEDVATYFCLQHSSRWTFGGGTKLELKGGGGSGGGGSGGGGSGGGGEVQLVESGGDLVQPGRSLKLSCIASGFTFTNFWMTWIRQVSGKGLEWVASISSSGGSIYYPDSVKDRFTISRDNAKNTLYLQMNSLRSEDTATYYCVKLHYYSGGGDAWGQGTSVTVSSGGGGSGGGGSDYKDDDDKGGGGSC | > 10 |
| L112-CD45 scFv (scFv, Full scFv-FLAG tagged with an extra C-terminal cys residue) scFv: EVQLVESGGDLVQPGRSLKLSCVASGFTFNNYWMTWIRQVPGKGLEWVASISSSGGSIYYPDSVKDRFTISRDNAKNTLFLQMNSLRSEDTATYYCARLYYYSGGGDAWGQGTSVTVSSGGGGSGGGGSGGGGSGGGGDIQMTQSPSFLSASVGDRVTIICKASQDINKYLDWYQQKLGEAPKLLIYNTNNLHTGIPSRFSGSGSGTDYTLTISSLQPEDVATYFCLQHISRWTFGGGTKLELKGGGGSGGGGSDYKDDDDKGGGGSC | > 10 |
| L122-CD45 scFv (scFv, Full scFv-FLAG tagged with an extra C-terminal cys residue) scFv: EVKLLESGGGLVQPGGSLKLSCAASGFDFSRYWMSWVRQAPGKGLEWIGEINPTSSTINFTPSLKDKVFISRDNAKNTLYLQMSKVRSEDTALYYCARGNYYRYGDAMDYWGQGTSVTVSSAKGGGGSGGGGSGGGGSGGGGSDIALTQSPASLAVSLGQRATISCRASKSVSTSGYSYLHWYQQKPGQPPKLLIYLASNLESGVPARFSGSGSGTDFTLNIHPVEEEDAATYYCQHSRELPFTFGSGTKLEIKGGGGSGGGGSDYKDDDDKGGGGSC | > 10 |
